Reference: IntAct's records for PubMed 20150893

B1: Vacuolar protein sorting-associated protein 27 (Saccharomyces cerevisiae), P40343 (parent)
chain: MSVSTPSELDALIEQATSESIPNGDLDLPIALEISDVLRSRRVNPKDSMRCIKKRILNTADNPNTQLSSWKLTNICVKNGGTPFIKEICSREFMDTMEHVILREDSNEELSELVKTILYELYVAFKNDSQLNYVAKVYDKLISRGIKFPEKLTLSNSPTAMFDSKTPADWIDSDACMICSKKFSLLNRKHHCRSCGGVFCQEHSSNSIPLPDLGIYEPVRVCDSCFEDYDLKRHDDSKKSKKHRHKRKKDRDYSTPEDEEELIRKAIELSLKESRNSASSEPIVPVVESKNEVKRQEIEEEEDPDLKAAIQESLREAEEAKLRSERQKASRQMQPQQPSPQPQPIHSVDLSDEEKDSIYMFASLVEKMKSRPLNEILEDSKLQNLAQRVFASKARLNYALNDKAQKYNTLIEMNGKISEIMNIYDRLLEQQLQSINLSQQYTLPQVPSDPYNYLTENVQNPAESYQTPPLQQLSSHQYKPQQDVSRQQSVKANSSPTTNIDHLKTIDVTPHAQQKPQSHVELAPSDPPYPKEEAEDEGTQAVQDEESSTQESRERPYPVETENGETSINKRPQGITRYDFPTVPARKFVQPESTVPLPASSSEIPIKEERPPSPQEELLIEL
B2: Class E vacuolar protein-sorting machinery protein HSE1 (Saccharomyces cerevisiae), P38753 (parent)
chain: MSSSAIKIRNALLKATDPKLRSDNWQYILDVCDLVKEDPEDNGQEVMSLIEKRLEQQDANVILRTLSLTVSLAENCGSRLRQEISSKNFTSLLYALIESHSVHITLKKAVTDVVKQLSDSFKDDPSLRAMGDLYDKIKRKAPYLVQPNVPEKHNMSTQADNSDDEELQKALKMSLFEYEKQKKLQEQEKESAEVLPQQQQQHQQQNQAPAHKIPAQTVVRRVRALYDLTTNEPDELSFRKGDVITVLEQVYRDWWKGALRGNMGIFPLNYVTPIVEPSKEEIEKEKNKEAIVFSQKTTIDQLHNSLNAASKTGNSNEVLQDPHIGDMYGSVTPLRPQVTRMLGKYAKEKEDMLSLRQVLANAERSYNQLMDRAANAHISPPVPGPALYAGMTHANNTPVMPPQRQSYQSNEYSPYPSNLPIQHPTNSANNTPQYGYDLGYSVVSQPPPGYEQ
B3: Signal transducing adapter molecule 1 (Homo sapiens), Q92783 (parent)
chain: MPLFATNPFDQDVEKATSEMNTAEDWGLILDICDKVGQSRTGPKDCLRSIMRRVNHKDPHVAMQALTLLGACVSNCGKIFHLEVCSRDFASEVSNVLNKGHPKVCEKLKALMVEWTDEFKNDPQLSLISAMIKNLKEQGVTFPAIGSQAAEQAKASPALVAKDPGTVANKKEEEDLAKAIELSLKEQRQQSTTLSTLYPSTSSLLTNHQHEGRKVRAIYDFEAAEDNELTFKAGEIITVLDDSDPNWWKGETHQGIGLFPSNFVTADLTAEPEMIKTEKKTVQFSDDVQVETIEPEPEPAFIDEDKMDQLLQMLQSTDPSDDQPDLPELLHLEAMCHQMGPLIDEKLEDIDRKHSELSELNVKVMEALSLYTKLMNEDPMYSMYAKLQNQPYYMQSSGVSGSQVYAGPPPSGAYLVAGNAQMSHLQSYSLPPEQLSSLSQAVVPPSANPALPSQQTQAAYPNTMVSSVQGNTYPSQAPVYSPPPAATAAAATADVTLYQNAGPNMPQVPNYNLTSSTLPQPGGSQQPPQPQQPYSQKALL

Variants of: B1
Conditions: with ubb_bovin UBB

effect of a mutation on the interaction | Variant
disrupting interaction | A266Q
disrupting interaction | S270D

Variants of: B2
Conditions: with ubb_bovin UBB

effect of a mutation on the interaction | Variant
disrupting interaction | S174D
disrupting interaction | A170Q

Variants of: B3
Conditions: with ubb_bovin UBB

effect of a mutation on the interaction | Variant
disrupting interaction | L30D

Variants of: B3
Conditions: with ubb_bovin UBB
Remark: another data set of the same source

effect of a mutation on the interaction | Variant
increasing interaction | D31Q

Variants of: B3
Conditions: with ubb_bovin UBB
Remark: another data set of the same source

effect of a mutation on the interaction | Variant
decreasing interaction | G27E

Variants of: B3
Conditions: with ubb_bovin UBB
Remark: another data set of the same source

effect of a mutation on the interaction | Variant
disrupting interaction | W26A
